Source: patent US20180291353A1, “MONOFUNCTIONAL ALDEHYDE AND ALCOHOL DEHYDROGENASES FOR PRODUCTION OF FUELS AND COMMODITY CHEMICALS” (The Regents of the University of California, priority 2015, published 2018)

Experiments:
[1] = molecular target: T1, ALDH16 (monofunctional aldehyde dehydrogenase, GI 150018649, SEQ ID NO: 16; Strep-ALDH16) (Clostridium diolis, UniProt A0AAV3W6M8); assay: In vitro kinetics of aldehyde/alcohol dehydrogenases, oxidation of NADH at 340 nm (purified Strep-ALDH16); type: biochemical; details: compared with ALDH domain of AdhE2
T1 sequence (A0AAV3W6M8 1-468): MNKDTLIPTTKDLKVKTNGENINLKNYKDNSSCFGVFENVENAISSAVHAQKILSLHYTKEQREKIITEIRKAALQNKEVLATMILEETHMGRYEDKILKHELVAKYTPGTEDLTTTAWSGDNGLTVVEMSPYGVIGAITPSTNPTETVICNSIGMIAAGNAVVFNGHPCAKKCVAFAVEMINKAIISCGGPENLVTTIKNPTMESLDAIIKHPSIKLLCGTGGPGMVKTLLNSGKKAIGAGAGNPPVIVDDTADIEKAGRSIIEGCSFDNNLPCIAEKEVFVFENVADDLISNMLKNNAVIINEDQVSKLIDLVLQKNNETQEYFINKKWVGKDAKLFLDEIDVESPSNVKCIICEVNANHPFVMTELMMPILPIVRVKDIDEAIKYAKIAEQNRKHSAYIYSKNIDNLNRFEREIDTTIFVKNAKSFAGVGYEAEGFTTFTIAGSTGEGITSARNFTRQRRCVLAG
Experimental: (§1) Activity of ALDH proteins was measured by monitoring the oxidation of NADH at 340 nm at 30° C. The assay mixture (400 μL) contained 100 μM NADH in 100 mM Tris 1 mM DTT pH 7.5. The reaction was initiated by the addition of substrate. Kinetic parameters (kcat, KM) were determined by fitting the data using Microcal Origin to the equation: vo=vmax [S]/(KM+[S]), where v is the initial rate and [S] is the substrate concentration. Data are reported as mean±s.e. (n=3) unless otherwise noted with standard error derived from the nonlinear curve fitting. Error bars on graphs represent mean±s.d. (n=3). Error in kcat/KM is calculated by propagation of error from the individual kinetic parameters.
(§2) To further explore the potential for expressing monofunctional aldehyde and alcohol dehydrogenases in host cells for the production of alcohols, various aldehyde and alcohol dehydrogenases were purified and isolated to investigate their in vitro kinetic behavior with various C4 and C2 substrates. In particular, the monofunctional aldehyde dehydrogenase identified in FIG. 3 above (GI 150018649, also referred to as ALDH16) was purified (FIG. 4A and FIG. 4B) and the in vitro kinetic behavior of a purified Strep-ALDH16 protein with various C4 and C2 substrates was tested.

[2] = substrate: CC=O; assay: In vitro kinetics of aldehyde/alcohol dehydrogenases, oxidation of NADH at 340 nm (alcohol dehydrogenase domain of AdhE2); type: biochemical; details: other: 100 μM NADH, 100 mM Tris, 1 mM DTT, pH 7.5, 30° C., mean±s.e. (n=3)
Experimental: as §1, §2

[3] = substrate: CCCC=O; assay: as above; type: biochemical; details: other: 100 μM NADH, 100 mM Tris, 1 mM DTT, pH 7.5, 30° C., mean±s.e. (n=3)
Experimental: as §1, §2

[4] = tested on: butanol production pathway; assay: Butanol and ethanol production in E. coli MC1.24 (quintuple KO) with bifunctional or monofunctional dehydrogenases (FIG. 5); type: cell-based; details: E. coli MC1.24, FIG. 5
Excerpt: FIG. 5 illustrates genetically engineered improvement of a butanol production pathway composed of monofunctional aldehyde and alcohol dehydrogenases. The fuel titer of either butanol or ethanol in E. coli cells expressing the biosynthetic pathway shown in FIG. 6A with various particular alcohol and/or aldehyde dehydrogenases is shown. Specifically, E. coli MC1.24 (quintuple KO) was transformed with pT533-phaA.HBD, pBBR2-aceE.F.lpd and 1: pCWO.trc-ter-adhE2, 2: pCDF3-aldh16, 3: pCWori-ter-aldh16.CaADH, or 4: pCWO.trc-ter-aldh16.CaADH as indicated.
. The cultures were grown at 37° C. in a rotary shaker (200 r.p.m.) and induced with IPTG (1.0 mM) at OD600=0.35-0.45. At this time, the growth temperature was reduced to 30° C., and the culture flasks were sealed with Parafilm M (Pechiney Plastic Packaging) to prevent product evaporation for aerobic cultures. Anaerobic cultures were sealed and the headspace was sparged with argon for 5 minutes immediately follow induction. Aerobic cultures were unsealed for 10 to 30 min every 24 h then resealed with Parafilm M, and additional glucose (1% (w/v)) was added 1 day post-induction. Samples were quantified after 3 d of cell culture.
Samples (2 ml) were removed from cell culture and cleared of biomass by centrifugation at 20,817 g for 2 min using an Eppendorf 5417R centrifuge. The supernatant or cleared medium sample was then mixed in a 9:1 ratio with an aqueous solution containing the isobutanol internal standard (10,000 mg l^−1). These samples were then analyzed on a Trace GC Ultra (Thermo Scientific) using an HP-5MS column (0.25 mm×30 m, 0.25 μM film thickness, J & W Scientific). The oven program was as follows: 75° C. for 3 min, ramp to 300° C. at 45° C. min^−1, 300° C. for 1 min. n-Butanol was quantified by flame ionization detection (FID) (flow: 350 ml min^−1 air, 35 ml min^−1 H2 and 30 ml min^−1 helium). Samples containing n-butanol levels below 500 mg 1^−1 were requantified after extraction of the cleared medium sample or standard (500 μl) with toluene (500 μl) containing the isobutanol internal standard (100 mg 1^−1) using a Digital Vortex Mixer (Fisher) for 5 min set at 2,000. The organic layer was then quantified using the same GC parameters with a DSQII single-quadrupole mass spectrometer (Thermo Scientific) using single-ion monitoring (m/z 41 and 56) concurrent with full scan mode (m/z 35-80). Samples were quantified relative to a standard curve of 2, 4, 8, 16, 31, 63, 125, 250, 500 mg 1^−1 n-butanol for MS detection or 125, 250, 500, 1,000, 2,000, 4,000, 8,000 mg 1^−1 n-butanol for FID detection. Standard curves were prepared freshly during each run and normalized for injection volume using the internal isobutanol standard (100 or 1,000 mg 1^−1 for MS and FID, respectively). […]

CC(=O)SCCNC(=O)CCNC(=O)[C@H](O)C(C)(C)COP(=O)(O)OP(=O)(O)OC[C@H]1O[C@@H](n2cnc3c(N)ncnc32)[C@H](O)[C@@H]1OP(=O)(O)O [acetyl-CoA]
higher KM for acetyl-CoA [1]: 5 fold

B1: AdhE2-ADH (alcohol dehydrogenase domain of bifunctional AdhE2, wild type, GI 499193180, SEQ ID NO: 41) (Clostridium acetobutylicum) (protein)
chain: MKVTNQKELKQKLNELREAQKKFATYTQEQVDKIFKQCAIAAAKERINLAKLAVEETGIGLVEDKIIKNHFAAEYIYNKYKNEKTCGIIDHDDSLGITKVAEPIGIVAAIVPTTNPTSTAIFKSLISLKTRNAIFFSPHPRAKKSTIAAAKLILDAAVKAGAPKNIIGWIDEPSIELSQDLMSEADIILATGGPSMVKAAYSSGKPAIGVGAGNTPAIIDESADIDMAVSSIILSKTYDNGVICASEQSILVMNSIYEKVKEEFVKRGSYILNQNEIAKIKETMFKNGAINADIVGKSAYIIAKMAGIEVPQTTKILIGEVQSVEKSELFSHEKLSPVLAMYKVKDFDEALKKAQRLIELGGSGHTSSLYIDSQNNKDKVKEFGLAMKTSRTFINMPSSQGASGDLYNFAIAPSFTLGCGTWGGNSVSQNVEPKHLLNIKSVAERRENMLWFKVPQKIYFKYGCLRFALKELKDMNKKRAFIVTDKDLFKLGYVNKITKVLDEIDIKYSIFTDIKSDPTIDSVKKGAKEMLNFEPDTIISIGGGSPMDAAKVMHLLYEYPEAEIENLAINFMDIRKRICNFPKLGTKAISVAIPTTAGTGSEATPFAVITNDETGMKYPLTSYELTPNMAIIDTELMLNMPRKLTAATGIDALVHAIEAYVSVMATDYTDELALRAIKMIFKYLPRAYKNGTNDIEAREKMAHASNIAGMAFANAFLGVCHSMAHKLGAMHHVPHGIACAVLIEEVIKYNATDCPTKQTAFPQYKSPNAKRKYAEIAEYLNLKGTSDTEKVTALIEAISKLKIDLSIPQNISAAGINKKDFYNTLDKMSELAFDDQCTTANPRYPLISELKDIYIKSF
notes: alcohol dehydrogenase activity (C-terminal domain) measured
Km [2]: 4.5 ± 0.3 mM
Km [3]: 4 ± 0.4 mM
kcat [3]: 2.9 ± 0.1 s⁻¹
kcat/Km [3]: 700 ± 20 M⁻¹ s⁻¹

B2: AdhE2: bifunctional alcohol and aldehyde dehydrogenase, wild-type AdhE2 (protein, listed as Clostridium acetobutylicum)
chain: MKVTNQKELKQKLNELREAQKKFATYTQEQVDKIFKQCAIAAAKERINLAKLAVEETGIGLVEDKIIKNHFAAEYIYNKYKNEKTCGIIDHDDSLGITKVAEPIGIVAAIVPTTNPTSTAIFKSLISLKTRNAIFFSPHPRAKKSTIAAAKLILDAAVKAGAPKNIIGWIDEPSIELSQDLMSEADIILATGGPSMVKAAYSSGKPAIGVGAGNTPAIIDESADIDMAVSSIILSKTYDNGVICASEQSILVMNSIYEKVKEEFVKRGSYILNQNEIAKIKETMFKNGAINADIVGKSAYIIAKMAGIEVPQTTKILIGEVQSVEKSELFSHEKLSPVLAMYKVKDFDEALKKAQRLIELGGSGHTSSLYIDSQNNKDKVKEFGLAMKTSRTFINMPSSQGASGDLYNFAIAPSFTLGCGTWGGNSVSQNVEPKHLLNIKSVAERRENMLWFKVPQKIYFKYGCLRFALKELKDMNKKRAFIVTDKDLFKLGYVNKITKVLDEIDIKYSIFTDIKSDPTIDSVKKGAKEMLNFEPDTIISIGGGSPMDAAKVMHLLYEYPEAEIENLAINFMDIRKRICNFPKLGTKAISVAIPTTAGTGSEATPFAVITNDETGMKYPLTSYELTPNMAIIDTELMLNMPRKLTAATGIDALVHAIEAYVSVMATDYTDELALRAIKMIFKYLPRAYKNGTNDIEAREKMAHASNIAGMAFANAFLGVCHSMAHKLGAMHHVPHGIACAVLIEEVIKYNATDCPTKQTAFPQYKSPNAKRKYAEIAEYLNLKGTSDTEKVTALIEAISKLKIDLSIPQNISAAGINKKDFYNTLDKMSELAFDDQCTTANPRYPLISELKDIYIKSF
butanol production [4]: 4.5 g/L
ethanol production [4]: 3 g/L
